In patent US20200096514:

Key:
LAS-Q = target: T1, LAS-Q (not fully specified)
T1 chain: GLGGGAGK

ELA-Q = target: T2, ELA-Q (not fully specified)
T2 chain: GAAFAGK

B1: LasA protease of Pseudomonas aeruginosa (secreted, in culture supernatants) (protein)
chain: APPSNLMQLPWRQGYSWQPNGAHSNTGSGYPYSSFDASYDWPRWGSATYSVVAAHAGTVRVLSRCQVRVTHPSGWATNYYHMDQIQVSNGQQVSADTKLGVYASNINTALCEGGSSTGPHLHFSLLYNGAFVSLQGASFGPYRINVGTSNYDNDCRRYYFYNQSAGTTHCAFRPLYNPGLAL
Question: For B1, which “cleavage of LAS-Q by P. aeruginosa culture supernatants (fluorescence) set against LasA content by Western blot” value (LAS-Q) is on record?
Answer: The value was “the non-cleaving strains lacked LasA in their supernatant, whereas supernatant from the substrate-cleaving strains contained substantial levels of LasA protein”.

B2: recombinant mouse neutrophil elastase (protein)
chain: SEIVGGRPARPHAWPFMASLQRRGGHFCGATLIARNFVMSAAHCVNGLNFRSVQVVLGAHDLRRQERTRQTFSVQRIFENGFDPSQLLNDIVIIQLNGSATINANVQVAQLPAQGQGVGDRTPCLAMGWGRLGTNRPSPSVLQELNVTVVTNMCRRRVNVCTLVPRRQAGICFGDSGGPLVCNNLVQGIDSFIRGGCGSGLYPDAFAPVAEFADWINSIIRSHNDHLLTHPKDREGRTN
Question: Which “reversal of FRET-quenched fluorescent signal (cleavage)” value (ELA-Q) does the source give for B2 here?
Answer: Its value is “ELA-Q and-to a lesser extent, LAS-Q-are each cleaved by neutrophil elastase”.

Question: And the “reversal of FRET-quenched fluorescent signal (cleavage)” value (LAS-Q)?
Answer: Its value is “ELA-Q and-to a lesser extent, LAS-Q-are each cleaved by neutrophil elastase”.
